Measurements: patent US20160033516A1 (SALK INSTITUTE FOR BIOLOGICAL STUDIES, published 2016)

B1: anti-3-pHis mAb SC39-4 (antibody, V domains shown, not shown: a dimerising Fc or GST)
VH: ESGGRLVTPGGSLTLTCTVSGFSLSRYNMGWVRQAPGKGLEWIGWIPFRGSLKYATWATGRFTISRTSTTVDLRMTGLTAADTATYFCVRSSDGFDLWGPGTLVTVSS
VL: QFVMTQTPASVEAVVGGTVTIKCQASRDTGDGLIWYQQKPGQPPKRLIYKASTVASGVPSRFKGRGSGTDFTLTISDLECADAATYYCHSNFYNRWTYGNAFGGGTEVVVKG
notes: Rabbit hybridoma monoclonal IgG, used as whole IgG (free or crosslinked to protein-A agarose)

Tests used:
[1] = target: Histone H4 in lysates of FLAG-NME1 HEK 293 cells (human) (UniProt P62805); experiment: SILAC LC-MS/MS of mAb column eluate E1, FLAG-NME1 293 lysate, untreated over acid/heat-treated
[2] = target: LDHA in lysates of FLAG-NME1 HEK 293 cells (human) (UniProt P00338); experiment: as above
[3] = target: NME2 in lysates of FLAG-NME1 HEK 293 cells (human) (UniProt P22392); experiment: as above
[4] = target: ACLY (ATP-citrate lyase) in mammalian cell lysates (human) (UniProt P53396); experiment: as above
[5] = target: NME1 in lysates of FLAG-NME1 HEK 293 cells (human) (UniProt P15531); experiment: as above
[6] = target: TUBB in lysates of FLAG-NME1 HEK 293 cells (human) (UniProt P07437); experiment: as above
[7] = target: GAPDH in lysates of FLAG-NME1 HEK 293 cells (human) (UniProt P04406); experiment: as above
[8] = target: TCP1 in lysates of FLAG-NME1 HEK 293 cells (human) (UniProt P17987); experiment: as above
[9] = target: RPS3A in lysates of FLAG-NME1 HEK 293 cells (human) (UniProt P61247); experiment: as above
[10] = target: Histone H4 H18 peptide GAKR-X-RKVL, X = 1-pTza (mammalian); experiment: synthetic peptide dot blot array
[11] = target: GNB1 H266 peptide MTYS-X-DNII, X = 1-pTza (mammalian); experiment: synthetic peptide dot blot array
[12] = target: NME1 H118 peptide RNII-X-GSDS, X = 1-pTza (mammalian); experiment: synthetic peptide dot blot array
[13] = target: ACLY-like H760 peptide AGAG-X-AGAG, X = 1-pTza (mammalian); experiment: synthetic peptide dot blot array
[14] = target: Histone H4 in lysates of FLAG-NME1 HEK 293 cells (human) (UniProt P62805); experiment: SILAC LC-MS/MS of mAb column eluate E2, FLAG-NME1 293 lysate, untreated over acid/heat-treated
[15] = target: SCS (succinyl-CoA synthetase) in mammalian cell lysates (human) (UniProt P53597); experiment: as above
[16] = target: LDHA in lysates of FLAG-NME1 HEK 293 cells (human) (UniProt P00338); experiment: as above
[17] = target: NME2 in lysates of FLAG-NME1 HEK 293 cells (human) (UniProt P22392); experiment: as above
[18] = target: ACLY (ATP-citrate lyase) in mammalian cell lysates (human) (UniProt P53396); experiment: as above
[19] = target: NME1 in lysates of FLAG-NME1 HEK 293 cells (human) (UniProt P15531); experiment: as above
[20] = target: TUBB in lysates of FLAG-NME1 HEK 293 cells (human) (UniProt P07437); experiment: as above
[21] = target: GAPDH in lysates of FLAG-NME1 HEK 293 cells (human) (UniProt P04406); experiment: as above
[22] = target: YWHAB in lysates of FLAG-NME1 HEK 293 cells (human) (UniProt P31946); experiment: as above
[23] = target: PGAM, endogenous, in lysates of FLAG-NME1 HEK 293 cells (human) (UniProt P18669); experiment: as above
[24] = target: TCP1 in lysates of FLAG-NME1 HEK 293 cells (human) (UniProt P17987); experiment: as above
[25] = target: RPS3A in lysates of FLAG-NME1 HEK 293 cells (human) (UniProt P61247); experiment: as above
[26] = target: 506 proteins enriched by at least 2-fold in 3-pHis column elutions E1-E3; experiment: SILAC LC-MS/MS of mAb column eluates E1-E3, FLAG-NME1 293 lysate
[27] = target: YWHAB in lysates of FLAG-NME1 HEK 293 cells (human) (UniProt P31946); experiment: SILAC LC-MS/MS of mAb column eluate E1, FLAG-NME1 293 lysate, untreated over acid/heat-treated
[28] = target: PGAM, endogenous, in lysates of FLAG-NME1 HEK 293 cells (human) (UniProt P18669); experiment: as above
[29] = target: GNB1 in lysates of FLAG-NME1 HEK 293 cells (human, UniProt P62873 2-340, phosphohistidine, annotated site printed H226 in Table 1 (H266 elsewhere)); experiment: SILAC LC-MS/MS of mAb column eluate E2, FLAG-NME1 293 lysate, untreated over acid/heat-treated
Protocol: A dramatic decrease of pHis in the heavy lysates was confirmed by immunoblotting. Both lysates were neutralized, diluted (1:5 to 1 M urea, pH 8), mixed together and one half was passed over the 1-pHis mAb column while the other half was passed over the 3-pHis mAb column. LC-MS/MS analysis was performed on tryptic peptides derived from proteins that eluted off the columns at pH 11. A SILAC ratio (light/heavy) was calculated for each peptide to determine which proteins were enriched in the untreated, light vs. heavy lysates that had been treated to reduce pHis.
After crosslinking, pHis mAb resins (˜750 μl each) were packed in 10 ml chromatography columns (BioRad) and stored at 4° C. in or equilibrated with Wash/Binding Buffer (50 mM Tris, 30 mM sodium carbonate pH 8 (prepared by dilution of 100 mM sodium carbonate buffer pH 10 with H₂O and 1 M Tris pH 7)). Stable isotope labeling by amino acids in cell culture (SILAC) was performed on FLAG-NME1 293 cells which were metabolically labeled with Arg (¹³C₆/¹⁵N₄) and Lys (¹³C₆). These “heavy” labeled cells were used as an internal negative control for pHis mAb binding. Non-labeled, “light” FLAG-NME1 293 cells were cultured in parallel. For cell lysis, precautions were taken to preserve pHis and avoid salts and detergents that can interfere with downstream MS analysis. […]

Chain of YWHAB in lysates of FLAG-NME1 HEK 293 cells (human) (P31946 whole entry): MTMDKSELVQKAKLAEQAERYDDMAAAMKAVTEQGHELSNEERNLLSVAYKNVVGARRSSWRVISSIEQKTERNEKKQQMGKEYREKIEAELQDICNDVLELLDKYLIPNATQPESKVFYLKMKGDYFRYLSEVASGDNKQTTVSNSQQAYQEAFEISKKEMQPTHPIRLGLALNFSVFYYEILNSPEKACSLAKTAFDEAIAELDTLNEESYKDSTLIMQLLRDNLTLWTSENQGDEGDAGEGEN
Chain of NME1 in lysates of FLAG-NME1 HEK 293 cells (human) (P15531 2-152 limits assumed): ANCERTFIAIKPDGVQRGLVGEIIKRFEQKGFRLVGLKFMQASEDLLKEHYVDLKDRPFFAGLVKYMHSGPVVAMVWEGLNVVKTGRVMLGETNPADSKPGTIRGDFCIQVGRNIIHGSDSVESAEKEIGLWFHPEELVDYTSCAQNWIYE
Chain of GAPDH in lysates of FLAG-NME1 HEK 293 cells (human) (P04406 2-335 limits assumed): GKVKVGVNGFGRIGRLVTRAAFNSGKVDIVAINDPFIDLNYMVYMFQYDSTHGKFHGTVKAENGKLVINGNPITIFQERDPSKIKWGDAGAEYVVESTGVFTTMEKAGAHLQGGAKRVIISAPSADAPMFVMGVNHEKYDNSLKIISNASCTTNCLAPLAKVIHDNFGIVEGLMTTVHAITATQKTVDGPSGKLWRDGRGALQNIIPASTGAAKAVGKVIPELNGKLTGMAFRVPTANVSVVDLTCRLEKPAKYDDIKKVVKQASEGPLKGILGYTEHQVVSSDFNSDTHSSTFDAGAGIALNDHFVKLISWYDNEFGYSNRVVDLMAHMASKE
Chain of ACLY (ATP-citrate lyase) in mammalian cell lysates (human) (P53396 whole entry): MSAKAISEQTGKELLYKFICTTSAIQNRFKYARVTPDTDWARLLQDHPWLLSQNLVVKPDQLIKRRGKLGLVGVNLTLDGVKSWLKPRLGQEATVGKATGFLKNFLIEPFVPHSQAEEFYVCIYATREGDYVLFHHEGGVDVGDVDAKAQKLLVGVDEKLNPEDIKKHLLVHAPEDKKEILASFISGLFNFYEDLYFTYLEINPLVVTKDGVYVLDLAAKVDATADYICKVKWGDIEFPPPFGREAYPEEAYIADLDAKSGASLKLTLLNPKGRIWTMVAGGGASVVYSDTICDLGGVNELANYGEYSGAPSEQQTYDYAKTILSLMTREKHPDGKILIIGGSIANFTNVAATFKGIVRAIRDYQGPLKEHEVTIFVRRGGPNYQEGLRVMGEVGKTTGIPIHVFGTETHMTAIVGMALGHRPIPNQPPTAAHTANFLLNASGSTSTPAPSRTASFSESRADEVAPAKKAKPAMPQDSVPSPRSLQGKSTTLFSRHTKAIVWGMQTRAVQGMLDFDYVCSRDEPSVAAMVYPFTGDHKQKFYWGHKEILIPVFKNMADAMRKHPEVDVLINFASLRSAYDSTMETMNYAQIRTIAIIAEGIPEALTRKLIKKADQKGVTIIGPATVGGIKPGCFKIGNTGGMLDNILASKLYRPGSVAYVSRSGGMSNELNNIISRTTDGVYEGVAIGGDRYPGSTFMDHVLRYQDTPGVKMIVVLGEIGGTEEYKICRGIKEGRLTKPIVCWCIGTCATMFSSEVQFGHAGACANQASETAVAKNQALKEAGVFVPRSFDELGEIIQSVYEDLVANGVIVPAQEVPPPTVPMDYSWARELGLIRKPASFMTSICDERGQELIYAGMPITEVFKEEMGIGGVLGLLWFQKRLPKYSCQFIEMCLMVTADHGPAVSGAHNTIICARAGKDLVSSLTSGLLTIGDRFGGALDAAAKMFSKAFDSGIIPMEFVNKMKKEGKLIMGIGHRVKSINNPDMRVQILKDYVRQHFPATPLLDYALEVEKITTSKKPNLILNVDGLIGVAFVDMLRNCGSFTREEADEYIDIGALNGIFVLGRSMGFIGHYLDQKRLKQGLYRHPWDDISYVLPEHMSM
Chain of PGAM, endogenous, in lysates of FLAG-NME1 HEK 293 cells (human) (P18669 2-254 limits assumed): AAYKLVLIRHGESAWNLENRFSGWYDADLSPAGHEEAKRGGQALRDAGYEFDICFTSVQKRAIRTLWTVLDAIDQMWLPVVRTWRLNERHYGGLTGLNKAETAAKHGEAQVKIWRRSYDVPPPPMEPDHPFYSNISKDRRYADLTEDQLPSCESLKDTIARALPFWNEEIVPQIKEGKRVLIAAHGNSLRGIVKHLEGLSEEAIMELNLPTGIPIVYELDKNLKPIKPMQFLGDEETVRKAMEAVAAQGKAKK
Chain of TUBB in lysates of FLAG-NME1 HEK 293 cells (human) (P07437 whole entry): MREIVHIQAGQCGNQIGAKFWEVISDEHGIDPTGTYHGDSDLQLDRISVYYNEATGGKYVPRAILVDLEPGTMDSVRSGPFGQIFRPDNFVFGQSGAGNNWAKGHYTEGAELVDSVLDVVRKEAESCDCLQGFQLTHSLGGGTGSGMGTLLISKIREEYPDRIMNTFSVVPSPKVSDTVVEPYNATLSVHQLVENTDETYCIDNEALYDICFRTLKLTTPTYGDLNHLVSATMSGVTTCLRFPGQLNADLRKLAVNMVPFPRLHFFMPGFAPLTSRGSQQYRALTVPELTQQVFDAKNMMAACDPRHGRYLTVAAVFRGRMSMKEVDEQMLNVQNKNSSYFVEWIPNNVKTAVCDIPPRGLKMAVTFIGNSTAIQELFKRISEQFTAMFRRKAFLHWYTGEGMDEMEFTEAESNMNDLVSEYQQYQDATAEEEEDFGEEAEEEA
Chain of NME2 in lysates of FLAG-NME1 HEK 293 cells (human) (P22392 whole entry): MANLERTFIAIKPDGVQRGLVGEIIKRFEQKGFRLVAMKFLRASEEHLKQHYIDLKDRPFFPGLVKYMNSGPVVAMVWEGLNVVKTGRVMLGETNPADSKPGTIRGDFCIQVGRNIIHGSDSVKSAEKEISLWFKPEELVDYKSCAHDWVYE
Chain of TCP1 in lysates of FLAG-NME1 HEK 293 cells (human) (P17987 whole entry): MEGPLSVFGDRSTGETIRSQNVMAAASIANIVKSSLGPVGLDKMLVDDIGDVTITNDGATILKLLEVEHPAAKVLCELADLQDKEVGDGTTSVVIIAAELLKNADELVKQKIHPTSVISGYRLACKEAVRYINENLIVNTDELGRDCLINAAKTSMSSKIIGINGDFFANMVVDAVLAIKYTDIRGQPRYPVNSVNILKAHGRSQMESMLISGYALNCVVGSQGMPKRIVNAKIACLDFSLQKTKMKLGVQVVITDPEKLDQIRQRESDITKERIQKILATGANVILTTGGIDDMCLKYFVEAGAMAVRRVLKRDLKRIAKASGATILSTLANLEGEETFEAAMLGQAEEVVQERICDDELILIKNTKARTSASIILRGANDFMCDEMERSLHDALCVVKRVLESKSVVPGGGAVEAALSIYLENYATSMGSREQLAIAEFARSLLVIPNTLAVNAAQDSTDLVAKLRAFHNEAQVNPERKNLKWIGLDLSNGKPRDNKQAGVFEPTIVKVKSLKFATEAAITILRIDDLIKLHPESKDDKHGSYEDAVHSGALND
Chain of GNB1 in lysates of FLAG-NME1 HEK 293 cells (P62873 2-340 limits assumed): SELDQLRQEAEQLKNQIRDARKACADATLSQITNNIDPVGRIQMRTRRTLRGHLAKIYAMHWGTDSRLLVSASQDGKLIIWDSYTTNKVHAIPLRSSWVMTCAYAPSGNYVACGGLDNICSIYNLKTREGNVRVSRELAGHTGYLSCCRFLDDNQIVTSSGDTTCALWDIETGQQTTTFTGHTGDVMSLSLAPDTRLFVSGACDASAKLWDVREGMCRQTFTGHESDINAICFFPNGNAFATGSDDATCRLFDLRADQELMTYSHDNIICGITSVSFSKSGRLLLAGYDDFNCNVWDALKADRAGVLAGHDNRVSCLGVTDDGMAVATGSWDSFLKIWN
Chain of SCS (succinyl-CoA synthetase) in mammalian cell lysates (human) (P53597 41-346): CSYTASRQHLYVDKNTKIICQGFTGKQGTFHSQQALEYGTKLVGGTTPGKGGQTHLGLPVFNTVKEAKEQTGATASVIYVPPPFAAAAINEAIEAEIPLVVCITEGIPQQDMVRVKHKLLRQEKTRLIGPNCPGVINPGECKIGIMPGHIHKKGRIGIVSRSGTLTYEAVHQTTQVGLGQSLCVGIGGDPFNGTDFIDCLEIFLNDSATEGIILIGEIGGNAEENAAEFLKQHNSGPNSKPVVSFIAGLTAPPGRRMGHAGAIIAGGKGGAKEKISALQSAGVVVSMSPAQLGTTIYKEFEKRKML

| Molecule | SILAC ratio (light/heavy) [1] | SILAC ratio (light/heavy) [2] | SILAC ratio (light/heavy) [3] | SILAC ratio (light/heavy) [4] | SILAC ratio (light/heavy) [5] | SILAC ratio (light/heavy) [6] | SILAC ratio (light/heavy) [7] | SILAC ratio (light/heavy) [8] | SILAC ratio (light/heavy) [9] | least amount detected [10] | least amount detected [11] | least amount detected [12] | least amount detected [13] | SILAC ratio (light/heavy) [14] | SILAC ratio (light/heavy) [16] | SILAC ratio (light/heavy) [18] | SILAC ratio (light/heavy) [19] | SILAC ratio (light/heavy) [20] | SILAC ratio (light/heavy) [21] | SILAC ratio (light/heavy) [22] | further results |
| --- | --- | --- | --- | --- | --- | --- | --- | --- | --- | --- | --- | --- | --- | --- | --- | --- | --- | --- | --- | --- | --- |
| anti-1-pHis mAb SC1-1 (antibody) | 19.1 fold | 4.18 fold | 15.6 fold | 5.29 fold | 15.1 fold | 3.55 fold | 3.4 fold | 6.1 fold | 7.21 fold | 20 ng | 20 ng | 20 ng | 20 ng | 9.8 fold | 6.5 fold | 7.2 fold | 51.9 fold | 4.49 fold | 4.45 fold | 2.04 fold | SILAC ratio (light/heavy) [15]: 1.68 fold; SILAC ratio (light/heavy) [17]: 56 fold; SILAC ratio (light/heavy) [23]: 4.25 fold; SILAC ratio (light/heavy) [24]: 5.99 fold; SILAC ratio (light/heavy) [25]: 9.1 fold |
| anti-1-pHis mAb SC50-3 (antibody) | – | – | – | – | – | – | – | – | – | 20 ng | 20 ng | 20 ng | 20 ng | – | – | – | – | – | – | – | – |
| B1 | 22.8 fold | 6.6 fold | 3.46 fold | 11.6 fold | 118 fold | 4.33 fold | 4.76 fold | 5.98 fold | 10.4 fold | – | – | – | – | 17.9 fold | 3.08 fold | 2.99 fold | 2.14 fold | 2.09 fold | 3.32 fold | 1.63 fold | fold enrichment (SILAC ratio light/heavy) [26]: > 2 fold; SILAC ratio (light/heavy) [27]: 7.43 fold; SILAC ratio (light/heavy) [28]: 4.01 fold; SILAC ratio (light/heavy) [23]: 2.44 fold; SILAC ratio (light/heavy) [24]: 3.2 fold; SILAC ratio (light/heavy) [25]: 4.98 fold; SILAC ratio (light/heavy) [29]: 1.21 fold |
